# In PMC9780223:
# Target: purified recombinant PAPP-A free of STC2 (apo PAPP-A) (human) (UniProt Q13219)
# Experiment: MST
row,Kd,Substance
1,1.73 µM,"4P1, peptide from the linker region of IGFBP4 (from UniProt P22692)"
2,27.5 µM,"4P2, peptide from the linker region of IGFBP4 (from UniProt P22692)"
3,162 µM,"4P3, peptide from the linker region of IGFBP4 (from UniProt P22692)"
4,4.43 µM,"5P1, peptide from the linker region of IGFBP5 (from UniProt P24593)"
5,17.3 µM,"5P2, peptide from the linker region of IGFBP5 (from UniProt P24593)"
6,38 µM,"5P3, peptide from the linker region of IGFBP5 (from UniProt P24593)"
